{
  "source": "paper PMC8101287",
  "about": "“Molecular characterization of HLA class II binding to the LAG‐3 T cell co‐inhibitory receptor” (European Journal of Immunology, 2020)",
  "molecular_target": "HLA‐DR1 (HLA‐DRA1*01:01/HLA‐DRB*01:01) complexed with the HA_(306‐318) peptide, refolded from E. coli (human | )",
  "experiment": "SPR",
  "settings": "both partners purified",
  "data": [
    {"binder": "LAG‐3:Fc fusion protein (four extracellular domains of LAG‐3 and the Fc domain of IgG) (Fc fusion) LQPGAEVPVVWAQEGAPAQLPCSPTIPLQDLSLLRRAGVTWQHQPDSGPPAAAPGHPLAPGPHPAAPSSWGPRPRRYTVLSVGPGGLRSGRLPLQPRVQLDERGRQRGDFSLWLRPARRADAGEYRAAVHLRDRALSCRLRLRLGQASMTASPPGSLRASDWVILNCSFSRPDRPASVHWFRNRGQGRVPVRESPHHHLAESFLFLPQVSPMDSGPWGCILTYRDGFNVSIMYNLTVLGLEPPTPLTVYAGAGSRVGLPCRLPAGVGTRSFLTAKWTPPGGGPDLLVTGDNGDFTLRLEDVSQAQAGTYTCHIHLQEQQLNATVTLAIITVTPKSFGSPGSLGKLLCEVTPVSGQERFVWSSLDTPSQRSFSGPWLEAQEAQLLSQPWQCQLYQGERLLGAAVYFTELSSPGAQRSGRAPGALPAGHL", "values": [
      {"measurement": "Kd", "result": 13.1, "unit": "µM"}
    ]}
  ]
}
